The values below come from the supplement of paper PMC10126150.

± gives the standard deviation of the averaged measurements.
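Note: ATP exposure 15 min at 22 °C before imaging.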

This data set has as its system ATP. As to the kind of experiment: switch fluorescence ratio, 500 uM ATP over buffer (Cy3 cluster intensity, sum of 5 cycles each) (fold (ratio)); higher = stronger signal-on switching upon ATP binding; sequences stand for … in TCGTCGGCAGCGTCAGATGTGTATAAGAGACAGTTTTTTTTTTTTTTTTTTTTTTTTT…TC. The settings on record: aptamer strand: ATP DNA aptamer (quencher-CACCTGGGGGAGTATTGCGGAGGAAGG + anchor), 100 nM annealed; ATP concentration: 500 uM. The method, boiled down: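 After annealing to 100 nM quencher-labelled ATP aptamer, Cy3-labelled switching-strand clusters on a modified Illumina MiSeq flow-cell were imaged in selection buffer. A second image followed after 15 min with 500 uM ATP at 22 °C, and five such buffer/ATP cycles were done, each separated by NaOH stripping and re-annealing. The fluorescence ratio, averaged per switch-domain sequence, is summed target-cycle over summed buffer-cycle Cy3 intensity per cluster, with clusters outside 100-1000 RFU excluded.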
As for CGCTTCGTGA, the switch fluorescence ratio came out at 1.06 ± 0.059.
In the case of GGTTACGGGG, the switch fluorescence ratio worked out at 1.01 ± 0.013.
Consider ACACCATTAA, for which the switch fluorescence ratio worked out at 1.02 ± 0.03.
As for TTAATACCGC, the switch fluorescence ratio was found to be 1.12 ± 0.022.
The same measure for TCGGAGTGGG: 1.03 ± 0.043; for TGATTAGATT: 1.01 ± 0.046.
The value for GTGAGGGGGC was 0.993 ± 0.1; that for TTTCCATAAG was 1.007 ± 0.0022; that for TTTATAGAGC was 1.03 ± 0.054.
The same measure for TGGCTGGGTA: 0.983 ± 0.043.
Take TAAATACTCT: the switch fluorescence ratio was found to be 1.16 ± 0.032.
For the sequence GGGGTAAAGT, the switch fluorescence ratio was found to be 1.01 ± 0.028.
The same measure for GGGTGTTTTC: 0.998 ± 0.034.
Turning to TTTTATGCTA, the switch fluorescence ratio worked out at 1 ± 0.054.
The value for TGGGCGGTGT was 0.992 ± 0.037.
The value for TTGACCTGGG was 1.1 ± 0.098; that for GGATGATCTT was 0.972 ± 0.022; that for ATCGTGTATC was 1.06 ± 0.0081.
The value for GCAAGGGGGT was 1.05 ± 0.053.
As for TTCTGTTCGC, the switch fluorescence ratio turned out to be 1.03 ± 0.025.
The same measure for TTCTAGGGGT: 0.966 ± 0.012; for GTTATATGGT: 1.02 ± 0.021.
The same measure for TTAGGCCGAG: 1.04 ± 0.022; for GATGCACTCC: 1.911 ± 0.0078.
As for GATGGGCGGT, the switch fluorescence ratio is 0.9773 ± 0.0094.
The same measure for AACACAGCTC: 1.02 ± 0.024.
The same measure for TGTCAGTGCT: 1.015 ± 0.0066; for TGCCCCCGGT: 1.08 ± 0.066; for CACAGAGGGG: 1.02 ± 0.028.
On to CCGTCGCTTA, for which the switch fluorescence ratio turned out to be 2.36 ± 0.37.
The same measure for TAACGGAAAA: 1 ± 0.053; for AGTTTTTGCT: 0.9736 ± 0.0065; for GGACTGGCTA: 1.02 ± 0.035.
The value for TTTAATTGGG was 0.983 ± 0.039.
The same measure for TTTAACTGG: 1.03 ± 0.036; for TCATACTTAA: 1.04 ± 0.1.
With CACAGGGAGT, the switch fluorescence ratio is 1.03 ± 0.021.
In the case of TTTTGCAGG, the switch fluorescence ratio worked out at 0.991 ± 0.05.
The same measure for GGGACATTGT: 0.963 ± 0.03; for TAGGTTGCGA: 0.996 ± 0.021; for CGTCAAGGTG: 1.42 ± 0.24.
The same measure for AAATGCTGGG: 0.99 ± 0.031; for TGTGTTTAGT: 1.01 ± 0.013; for TCAGCATGTA: 1.04 ± 0.019.
The same measure for TTCCAGGAGC: 0.946 ± 0.091; for AGAGGTTCC: 1 ± 0.058; for TTCAGAGTCA: 0.985 ± 0.042.
On to ACGACGTGGG, for which the switch fluorescence ratio amounted to 1 ± 0.024.
The same measure for GTTTGCCCAA: 0.987 ± 0.037; for CTCGTTCGGC: 0.98 ± 0.024; for CCGAAGGATT: 1.022 ± 0.0044.
The value for GGATTTCATG was 1.07 ± 0.12.
The value for TTGGGGGTGG was 1.01 ± 0.04.
With CTCGAATGTA, the switch fluorescence ratio worked out at 0.994 ± 0.014.
The value for AAAATAAGGT was 0.969 ± 0.043; that for ACTTAACCGG was 1.05 ± 0.016; that for ATAATGGGCA was 0.983 ± 0.064.
The same measure for AAGGCTGATG: 0.983 ± 0.017.
The value for CAGTGAATGA was 1.03 ± 0.017; that for TTTTTTAAAC was 0.996 ± 0.013.
For TATGAGCCTG, the switch fluorescence ratio was 0.968 ± 0.047.
The value for TTTGATTGGG was 1.01 ± 0.037; that for AACGAGGGTC was 1.01 ± 0.049; that for TCCTGTGGGA was 1.007 ± 0.0053.
In the case of CCGCTGGTGT, the switch fluorescence ratio was determined as 3.59 ± 0.29.
The value for TAGGTAATTT was 0.968 ± 0.041.
The value for TGGGCATTAT was 1.04 ± 0.07; that for TTTGTTCACA was 1.06 ± 0.043; that for TACTATCGTT was 0.994 ± 0.01.
The value for GCCGTCTAAG was 0.993 ± 0.022; that for TTTTGGGAGG was 1 ± 0.054; that for GTAGGAAGTG was 0.9935 ± 0.0091.
For the sequence ATAATTATCG, the switch fluorescence ratio worked out at 0.972 ± 0.046.
The same measure for ACCTGGGTAC: 1.03 ± 0.055; for AAGTGAGAAA: 0.983 ± 0.066.
The value for ATCGGGGATT was 1.01 ± 0.014.
Regarding AAGACTTGGG, the switch fluorescence ratio amounted to 1.05 ± 0.029.
The same measure for TACTGTTTTT: 0.9832 ± 0.0056; for GATGATGGAG: 1.02 ± 0.011.
